# Assay results published in patent US20190194683A1 (WISCONSIN ALUMNI RESEARCH FOUNDATION, published 2019).
# T1: α-SNAPRhg1LC1-279 (α-SNAPRhg1LC lacking the final 10 C-terminal residues) (Glycine max (soybean))
# T1 construct: both say that the final 10 C-terminal residues are missing; also called α-SNAPRhg1LC1-280
# T1 chain: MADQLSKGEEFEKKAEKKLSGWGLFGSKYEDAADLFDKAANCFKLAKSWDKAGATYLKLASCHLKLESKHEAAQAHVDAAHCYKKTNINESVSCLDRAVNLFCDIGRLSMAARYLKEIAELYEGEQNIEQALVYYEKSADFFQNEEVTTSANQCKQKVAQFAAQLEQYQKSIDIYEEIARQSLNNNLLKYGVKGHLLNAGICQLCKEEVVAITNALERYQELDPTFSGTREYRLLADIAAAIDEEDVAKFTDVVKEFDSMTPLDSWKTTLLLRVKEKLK
# T2: α-SNAPRhg1WT1-279 (WT α-SNAP lacking the final 10 C-terminal residues) (Glycine max (soybean))
# T2 construct: also called α-SNAP lacking the C-terminus
# T2 chain: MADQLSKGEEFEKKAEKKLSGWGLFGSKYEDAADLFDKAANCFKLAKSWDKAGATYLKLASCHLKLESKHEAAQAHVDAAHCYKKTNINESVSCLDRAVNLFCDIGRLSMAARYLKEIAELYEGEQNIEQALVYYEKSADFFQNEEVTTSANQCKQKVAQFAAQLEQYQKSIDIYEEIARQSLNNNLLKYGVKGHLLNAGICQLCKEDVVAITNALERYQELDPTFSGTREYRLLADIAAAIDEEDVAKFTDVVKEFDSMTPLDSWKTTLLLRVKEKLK
# T3: α-SNAPRhg1WT (wild-type α-SNAP encoded by Glyma.18G022500, Williams 82) (Glycine max (soybean))
# T3 construct: also called WT α-SNAP; wild-type (WT) Rhg1 α-SNAP
# T3 chain: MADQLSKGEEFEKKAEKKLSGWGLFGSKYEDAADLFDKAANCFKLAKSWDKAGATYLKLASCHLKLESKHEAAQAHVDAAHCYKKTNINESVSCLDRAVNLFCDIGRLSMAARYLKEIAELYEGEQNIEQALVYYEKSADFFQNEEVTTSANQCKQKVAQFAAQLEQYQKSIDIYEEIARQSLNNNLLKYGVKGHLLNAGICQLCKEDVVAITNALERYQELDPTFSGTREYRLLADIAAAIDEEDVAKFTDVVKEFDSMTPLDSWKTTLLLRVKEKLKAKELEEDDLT
# T4: α-SNAPRhg1HC (high copy Rhg1 resistance-type α-SNAP, Glyma.18G022500 Fayette) (Glycine max (soybean))
# T4 construct: Recombinant protein, His-SUMO tag cleaved off; also called high copy (HC) Rhg1 α-SNAP
# T4 chain: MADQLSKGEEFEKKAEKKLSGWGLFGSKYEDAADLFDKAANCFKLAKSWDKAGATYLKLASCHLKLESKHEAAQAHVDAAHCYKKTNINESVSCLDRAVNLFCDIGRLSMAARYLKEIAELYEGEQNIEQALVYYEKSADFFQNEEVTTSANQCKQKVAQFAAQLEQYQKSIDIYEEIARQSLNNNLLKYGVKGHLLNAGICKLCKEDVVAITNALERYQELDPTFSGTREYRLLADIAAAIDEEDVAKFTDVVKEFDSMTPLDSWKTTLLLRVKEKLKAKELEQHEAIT
# T5: α-SNAPRhg1LC (low copy Rhg1 resistance-type α-SNAP, Glyma.18G022500 Peking) (Glycine max (soybean))
# T5 construct: Recombinant protein, His-SUMO tag cleaved off; also called low-copy (LC) Rhg1 α-SNAP
# T5 chain: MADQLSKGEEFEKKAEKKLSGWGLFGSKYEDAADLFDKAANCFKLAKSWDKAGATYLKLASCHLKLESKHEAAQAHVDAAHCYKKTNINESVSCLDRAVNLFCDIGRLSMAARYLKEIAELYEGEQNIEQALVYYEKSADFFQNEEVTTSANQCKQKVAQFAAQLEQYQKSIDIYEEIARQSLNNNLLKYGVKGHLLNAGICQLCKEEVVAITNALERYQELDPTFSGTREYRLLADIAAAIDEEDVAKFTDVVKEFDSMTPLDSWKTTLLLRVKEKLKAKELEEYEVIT
# Key:
# [1] = biological target: T1, α-SNAPRhg1LC1-279 (α-SNAPRhg1LC lacking …); test: in vitro binding
# [2] = biological target: T2, α-SNAPRhg1WT1-279 (WT α-SNAP lacking …); test: in vitro binding of recombinant NSF to tube-adsorbed α-SNAP, silver-stained SDS-PAGE
# Protocol: To verify that NSFRAN07/α-SNAP binding is dependent upon NSF-binding patches at the α-SNAP C-terminus, NSFRAN07 binding to an otherwise WT α-SNAP lacking the final 10 C-terminal residues (α-SNAPRhg1WT₁₋₂₇₉) was determined. Binding of NSFCh07WT or NSFRAN07 binding with α-SNAP Rhg1WT₁₋₂₇₉ was disrupted, similar to the no α-SNAP binding controls (FIG. 10C).
# (§1) In vitro NSF binding assays were performed essentially as described in Barnard et. al. (1997) J Cell Biol 139(4): 875-883; and Bayless et al. (2016), Proc Natl Acad Sci USA 113(47): E7375-E7382; Briefly, 20 μg of each respective recombinant α-SNAP protein was added to the bottom of a 1.5-mL polypropylene tube and incubated at 25° C. for 20 min. Unbound α-SNAP proteins were then washed by adding α-SNAP wash buffer [25 mM Tris, pH 7.4, 50 mM KCl, 1 mM DTT, 0.4 mg/mL bovine serum albumin (BSA)]. After removal of wash buffer, 20 μg of recombinant NSF (1 μg/μL in NSF binding buffer), was then immediately added and incubated on ice for 10 min. The solution was then removed, and samples were immediately washed 2× with NBB to remove any unbound NSF. Samples were then boiled in 1×SDS loading buffer and separated on a 10% Bis-Tris SDS-PAGE, and silver-stained using the ProteoSilver Kit (Sigma-Aldrich), according to the manufacturer directions. The percentage of NSF bound by α-SNAP was then calculated using densitometric analysis with ImageJ.
# [3] = biological target: T3, α-SNAPRhg1WT (wild-type α-SNAP encoded …); test: in vitro binding: α-SNAP adsorbed to tube, recombinant NSF added, bound NSF on silver-stained SDS-PAGE, ImageJ densitometry
# Text: (§2) All Rhg1-containing HG type test and NAM lines contained NSFRAN07, and α-SNAPRhg1HC and α-SNAPRhg1LC are polymorphic at C-terminal residues that bind and stimulate NSF. Therefore, the impact of NSFRAN07 polymorphisms on binding to both Rhg1 resistance-type α-SNAPs and α-SNAPRhg1WT was investigated. Recombinant NSFRAN07, NSFCh07 and Rhg1 α-SNAP proteins were produced for in vitro binding studies as previously described in (Barnard et al., 1997, J Cell Biol 139, 875-883; (Bayless et al. 2016, Proc. Natl. Acad. Sci. USA 113, E7375-E7382). NSFRAN07 and NSFCh07 binding was quantified using ImageJ densitometry across three independent experiments (FIG. 3D). NSFCh07 binding to α-SNAPRhg1HC and α-SNAPRhg1LC was reduced compared to α-SNAPRhg1WT (FIG. 3C). In contrast, NSFRAN07 binding to α-SNAPRhg1HC or α-SNAPRhg1LC was similar to α-SNAPRhg1WT binding, and was increased ˜30% relative to NSFCh07.
# as §1
# [4] = biological target: T4, α-SNAPRhg1HC (high copy Rhg1 …); test: in vitro binding, densitometry of silver-stained SDS-PAGE across three independent experiments; reference NSFCh07 on the same α-SNAP
# Text: as §2
# (§3) In vitro NSF binding assays were performed essentially as described in Barnard et. al. (1997) J Cell Biol 139(4): 875-883; and Bayless et al. (2016), Proc Natl Acad Sci USA 113(47): E7375-E7382; Briefly, 20 μg of each respective recombinant α-SNAP protein was added to the bottom of a 1.5-mL polypropylene tube and incubated at 25° C. for 20 min. […] The percentage of NSF bound by α-SNAP was then calculated using densitometric analysis with ImageJ.
# [5] = biological target: T5, α-SNAPRhg1LC (low copy Rhg1 …); test: as above
# Text: as §2, §3
# [6] = biological target: T4, α-SNAPRhg1HC (high copy Rhg1 …); test: in vitro binding: α-SNAP adsorbed to tube, recombinant NSF added, bound NSF on silver-stained SDS-PAGE, ImageJ densitometry
# Text: as §2, §1
# [7] = biological target: T5, α-SNAPRhg1LC (low copy Rhg1 …); test: as above
# Text: as §2, §1
binding result [1],binding result [2],binding result [3],increase of binding relative to NSFCh07 [4],increase of binding relative to NSFCh07 [5],binding result [6],binding result [7],Binder
no binding,no binding (tested: 20 µg NSF (1 µg/µL)),binds,~30%,~30%,,,"NSFRAN07 (Rhg1-associated NSF from chromosome 07, allele of Glyma.07G195900) (enzyme, Recombinant protein from E. coli, ORF cloned from Forrest (Rhg1LC) cDNA; Differs from NSFCh07 by R4Q, N21Y, S25N, insertion 116F and M181I; also called Glyma.07G195900 RAN07) MASQFGLSSSSSSASSMRVTYTPANDLALTNLAFCSPSDLRNFAVPGHNNLYLAAVADSFVLSLSAHDTIGSGQIALNAVQRRCAKVSSGDSVQVSRFVPPEDFNLALLTLELEFFVKKGSKSEQIDAVLLAKQLRKRFMNQVMTVGQKVLFEYHGNNYSFTVSNAAVEGQEKSNSLERGIISDDTYIVFETSRDSGIKIVNQREGATSNIFKQKEFNLQSLGIGGLSAEFADIFRRAFASRVFPPHVTSKLGIKHVKGMLLYGPPGTGKTLMARQIGKILNGKEPKIVNGPEVLSKFVGETEKNVRDLFADAEQDQRTRGDESDLHVIIFDEIDAICKSRGSTRDGTGVHDSIVNQLLTKIDGVESLNNVLLIGMTNRKDMLDEALLRPGRLEVQVEISLPDENGRLQILQIHTNKMKENSFLAADVNLQELAARTKNYSGAELEGVVKSAVSYALNRQLSLEDLTKPVEEENIKVTMDDFLNALHEVTSAFGASTDDLERCRLHGMVECGDRHKHIYQRAMLLVEQVKVSKGSPLVTCLLEGSRGSGKTALSATVGIDSDFPYVKIVSAESMIGLHESTKCAQIIKVFEDAYKSPLSVIILDDIERLLEYVPIGPRFSNLISQTLLVLLKRLPPKGKKLMVIGTTSELDFLESIGFCDTFSVTYHIPTLNTTDAKKVLEQLNVFTDEDIDSAAEALNDMPIRKLYMLIEMAAQGEHGGSAEAIFSGKEKISIAHFYDCLQDVVRL"
no binding,no binding (tested: 20 µg NSF (1 µg/µL)),binds,,,binds,binds,"NSFCh07 (wild-type NSF encoded by Glyma.07G195900, soybean reference genome Williams 82) (enzyme, Recombinant protein from E. coli; also called NSFCh07WT; NSF-WT) MASRFGLSSSSSSASSMRVTNTPASDLALTNLAFCSPSDLRNFAVPGHNNLYLAAVADSFVLSLSAHDTIGSGQIALNAVQRRCAKVSSGDSVQVSRFVPPEDFNLALLTLELEFVKKGSKSEQIDAVLLAKQLRKRFMNQVMTVGQKVLFEYHGNNYSFTVSNAAVEGQEKSNSLERGMISDDTYIVFETSRDSGIKIVNQREGATSNIFKQKEFNLQSLGIGGLSAEFADIFRRAFASRVFPPHVTSKLGIKHVKGMLLYGPPGTGKTLMARQIGKILNGKEPKIVNGPEVLSKFVGETEKNVRDLFADAEQDQRTRGDESDLHVIIFDEIDAICKSRGSTRDGTGVHDSIVNQLLTKIDGVESLNNVLLIGMTNRKDMLDEALLRPGRLEVQVEISLPDENGRLQILQIHTNKMKENSFLAADVNLQELAARTKNYSGAELEGVVKSAVSYALNRQLSLEDLTKPVEEENIKVTMDDFLNALHEVTSAFGASTDDLERCRLHGMVECGDRHKHIYQRAMLLVEQVKVSKGSPLVTCLLEGSRGSGKTALSATVGIDSDFPYVKIVSAESMIGLHESTKCAQIIKVFEDAYKSPLSVIILDDIERLLEYVPIGPRFSNLISQTLLVLLKRLPPKGKKLMVIGTTSELDFLESIGFCDTFSVTYHIPTLNTTDAKKVLEQLNVFTDEDIDSAAEALNDMPIRKLYMLIEMAAQGEHGGSAEAIFSGKEKISIAHFYDCLQDVVRL"
